Measurements from patent publication US20240301068A1 (BEIJING HANMI PHARMACEUTICAL, published 2024).

target: recombinant human PD-L1 (Sino Biological Inc.) (human, UniProt Q9NZQ7 19-239); assay: affinity determination (dissociation constant), method not stated
Sequence (Q9NZQ7 19-239 limits assumed): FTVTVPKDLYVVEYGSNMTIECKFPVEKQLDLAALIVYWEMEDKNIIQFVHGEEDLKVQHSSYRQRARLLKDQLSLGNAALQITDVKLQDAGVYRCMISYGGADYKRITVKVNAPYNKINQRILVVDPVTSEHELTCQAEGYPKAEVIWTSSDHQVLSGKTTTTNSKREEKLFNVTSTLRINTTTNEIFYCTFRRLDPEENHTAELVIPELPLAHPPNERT

Binder | koff
humanized anti-human PD-L1 monoclonal antibody VLS9-VHS1 (antibody, human IgG1, kappa, V domains shown) VH: QVQLVQSGAEVKKPGSSVKVSCTASGFNIEDTYIHWVRQAPGQGLEWMGRIDPANGNTKYDPKFQGRVTITADESTSTAYMELSSLRSEDTAVYYCGRGLGAWFAYWGQGTLVTVSS VL: DIQMTQSPSSLSASVGDRVTITCKASQDVHTAVAWYQQKPGKAPKLLIYSASNRYTGVPSRFSGSGSGTDFTFTISSLQPEDIATYYCQQHYITPLTFGQGTKLEIKR | 0.00597 s⁻¹
humanized anti-human PD-L1 monoclonal antibody VLS9-VHS2 (antibody, human IgG1, kappa, V domains shown) VH: QVQLVQSGAEVKKPGSSVKVSCTASGFNIEDTYIHWVRQAPGQGLEWMGRIDPANGNTKYDPKFQGRATITADESTSTAYMELSSLRSEDTAVYYCGRGLGAWFAYWGQGTLVTVSS VL: DIQMTQSPSSLSASVGDRVTITCKASQDVHTAVAWYQQKPGKAPKLLIYSASNRYTGVPSRFSGSGSGTDFTFTISSLQPEDIATYYCQQHYITPLTFGQGTKLEIKR | 0.00599 s⁻¹
humanized anti-human PD-L1 monoclonal antibody VLS9-VHS3 (antibody, human IgG1, kappa, V domains shown) VH: QVQLVQSGAEVKKPGSSVKVSCTASGFNIEDTYIHWVRQAPGQGLEWMGRIDPANGNTKYDPKFQGRVTITADTSTSTAYMELSSLRSEDTAVYYCGRGLGAWFAYWGQGTLVTVSS VL: DIQMTQSPSSLSASVGDRVTITCKASQDVHTAVAWYQQKPGKAPKLLIYSASNRYTGVPSRFSGSGSGTDFTFTISSLQPEDIATYYCQQHYITPLTFGQGTKLEIKR | 0.0052 s⁻¹
humanized anti-human PD-L1 monoclonal antibody VLS9-VHS4 (antibody, human IgG1, kappa, V domains shown) VH: QVQLVQSGAEVKKPGSSVKVSCTASGFNIEDTYIHWVRQAPGQGLEWMGRIDPANGNTKYDPKFQGRVTITADESTNTAYMELSSLRSEDTAVYYCGRGLGAWFAYWGQGTLVTVSS VL: DIQMTQSPSSLSASVGDRVTITCKASQDVHTAVAWYQQKPGKAPKLLIYSASNRYTGVPSRFSGSGSGTDFTFTISSLQPEDIATYYCQQHYITPLTFGQGTKLEIKR | 0.00544 s⁻¹
humanized anti-human PD-L1 monoclonal antibody VLS9-VHS5 (antibody, human IgG1, kappa, V domains shown) VH: QVQLVQSGAEVKKPGSSVKVSCTASGFNIEDTYIHWVRQAPGQGLEWMGRIDPANGNTKYDPKFQGRATITADTSTSTAYMELSSLRSEDTAVYYCGRGLGAWFAYWGQGTLVTVSS VL: DIQMTQSPSSLSASVGDRVTITCKASQDVHTAVAWYQQKPGKAPKLLIYSASNRYTGVPSRFSGSGSGTDFTFTISSLQPEDIATYYCQQHYITPLTFGQGTKLEIKR | 0.00438 s⁻¹
humanized anti-human PD-L1 monoclonal antibody VLS9-VHS6 (antibody, human IgG1, kappa, V domains shown) VH: QVQLVQSGAEVKKPGSSVKVSCTASGFNIEDTYIHWVRQAPGQGLEWMGRIDPANGNTKYDPKFQGRATITADESTNTAYMELSSLRSEDTAVYYCGRGLGAWFAYWGQGTLVTVSS VL: DIQMTQSPSSLSASVGDRVTITCKASQDVHTAVAWYQQKPGKAPKLLIYSASNRYTGVPSRFSGSGSGTDFTFTISSLQPEDIATYYCQQHYITPLTFGQGTKLEIKR | 0.00618 s⁻¹
humanized anti-human PD-L1 monoclonal antibody VLS9-VHS7 (antibody, human IgG1, kappa, V domains shown) VH: QVQLVQSGAEVKKPGSSVKVSCTASGFNIEDTYIHWVRQAPGQGLEWMGRIDPANGNTKYDPKFQGRVTITADTSTNTAYMELSSLRSEDTAVYYCGRGLGAWFAYWGQGTLVTVSS VL: DIQMTQSPSSLSASVGDRVTITCKASQDVHTAVAWYQQKPGKAPKLLIYSASNRYTGVPSRFSGSGSGTDFTFTISSLQPEDIATYYCQQHYITPLTFGQGTKLEIKR | 0.0058 s⁻¹
humanized anti-human PD-L1 monoclonal antibody VLS9-VHS8 (antibody, human IgG1, kappa, V domains shown) VH: QVQLVQSGAEVKKPGSSVKVSCTASGFNIEDTYIHWVRQAPGQGLEWMGRIDPANGNTKYDPKFQGRATITADTSTNTAYMELSSLRSEDTAVYYCGRGLGAWFAYWGQGTLVTVSS VL: DIQMTQSPSSLSASVGDRVTITCKASQDVHTAVAWYQQKPGKAPKLLIYSASNRYTGVPSRFSGSGSGTDFTFTISSLQPEDIATYYCQQHYITPLTFGQGTKLEIKR | 0.00532 s⁻¹
humanized anti-human PD-L1 monoclonal antibody VLS10-VHS1 (antibody, human IgG1, kappa, V domains shown) VH: QVQLVQSGAEVKKPGSSVKVSCTASGFNIEDTYIHWVRQAPGQGLEWMGRIDPANGNTKYDPKFQGRVTITADESTSTAYMELSSLRSEDTAVYYCGRGLGAWFAYWGQGTLVTVSS VL: DIQMTQSPSSLSASVGDRVTITCKASQDVHTAVAWIHQKPGKAPKLLIYSASNRYTGVPSRFSGSGSGTDFTFTISSLQPEDIATYYCQQHYITPLTFGQGTKLEIKR | 0.00424 s⁻¹
humanized anti-human PD-L1 monoclonal antibody VLS10-VHS2 (antibody, human IgG1, kappa, V domains shown) VH: QVQLVQSGAEVKKPGSSVKVSCTASGFNIEDTYIHWVRQAPGQGLEWMGRIDPANGNTKYDPKFQGRATITADESTSTAYMELSSLRSEDTAVYYCGRGLGAWFAYWGQGTLVTVSS VL: DIQMTQSPSSLSASVGDRVTITCKASQDVHTAVAWIHQKPGKAPKLLIYSASNRYTGVPSRFSGSGSGTDFTFTISSLQPEDIATYYCQQHYITPLTFGQGTKLEIKR | 0.00325 s⁻¹
humanized anti-human PD-L1 monoclonal antibody VLS10-VHS3 (antibody, human IgG1, kappa, V domains shown) VH: QVQLVQSGAEVKKPGSSVKVSCTASGFNIEDTYIHWVRQAPGQGLEWMGRIDPANGNTKYDPKFQGRVTITADTSTSTAYMELSSLRSEDTAVYYCGRGLGAWFAYWGQGTLVTVSS VL: DIQMTQSPSSLSASVGDRVTITCKASQDVHTAVAWIHQKPGKAPKLLIYSASNRYTGVPSRFSGSGSGTDFTFTISSLQPEDIATYYCQQHYITPLTFGQGTKLEIKR | 0.00121 s⁻¹
humanized anti-human PD-L1 monoclonal antibody VLS10-VHS4 (antibody, human IgG1, kappa, V domains shown) VH: QVQLVQSGAEVKKPGSSVKVSCTASGFNIEDTYIHWVRQAPGQGLEWMGRIDPANGNTKYDPKFQGRVTITADESTNTAYMELSSLRSEDTAVYYCGRGLGAWFAYWGQGTLVTVSS VL: DIQMTQSPSSLSASVGDRVTITCKASQDVHTAVAWIHQKPGKAPKLLIYSASNRYTGVPSRFSGSGSGTDFTFTISSLQPEDIATYYCQQHYITPLTFGQGTKLEIKR | 0.00156 s⁻¹
humanized anti-human PD-L1 monoclonal antibody VLS10-VHS5 (antibody, human IgG1, kappa, V domains shown) VH: QVQLVQSGAEVKKPGSSVKVSCTASGFNIEDTYIHWVRQAPGQGLEWMGRIDPANGNTKYDPKFQGRATITADTSTSTAYMELSSLRSEDTAVYYCGRGLGAWFAYWGQGTLVTVSS VL: DIQMTQSPSSLSASVGDRVTITCKASQDVHTAVAWIHQKPGKAPKLLIYSASNRYTGVPSRFSGSGSGTDFTFTISSLQPEDIATYYCQQHYITPLTFGQGTKLEIKR | 0.000994 s⁻¹
humanized anti-human PD-L1 monoclonal antibody VLS10-VHS6 (antibody, human IgG1, kappa, V domains shown) VH: QVQLVQSGAEVKKPGSSVKVSCTASGFNIEDTYIHWVRQAPGQGLEWMGRIDPANGNTKYDPKFQGRATITADESTNTAYMELSSLRSEDTAVYYCGRGLGAWFAYWGQGTLVTVSS VL: DIQMTQSPSSLSASVGDRVTITCKASQDVHTAVAWIHQKPGKAPKLLIYSASNRYTGVPSRFSGSGSGTDFTFTISSLQPEDIATYYCQQHYITPLTFGQGTKLEIKR | 0.00121 s⁻¹
humanized anti-human PD-L1 monoclonal antibody VLS10-VHS8 (antibody, human IgG1, kappa, V domains shown) VH: QVQLVQSGAEVKKPGSSVKVSCTASGFNIEDTYIHWVRQAPGQGLEWMGRIDPANGNTKYDPKFQGRATITADTSTNTAYMELSSLRSEDTAVYYCGRGLGAWFAYWGQGTLVTVSS VL: DIQMTQSPSSLSASVGDRVTITCKASQDVHTAVAWIHQKPGKAPKLLIYSASNRYTGVPSRFSGSGSGTDFTFTISSLQPEDIATYYCQQHYITPLTFGQGTKLEIKR | 0.000652 s⁻¹
humanized anti-human PD-L1 monoclonal antibody VLS15-VHS11 (antibody, human IgG1, kappa, V domains shown) VH: EVQLVQSGAEVKKPGSSVKVSCKASGFNIEDTYIHWVRQAPGQGLEWMGRIDPANGNTKYDPKFQGRVTITADESTNTAYMELSSLRSEDTAVYYCGRGLGAWFAYWGQGTLVTVSS VL: DIQMTQSPSSLSASVGDRVTITCKASQDVHTAVAWIQQKPGKSPKLLIYSASNRYTGVPSRFSGSGSGTDFTFTISSLQPEDIATYYCQQHYITPLTFGQGTKLEIKR | 0.000841 s⁻¹
humanized anti-human PD-L1 monoclonal antibody VLS15-VHS13 (antibody, human IgG1, kappa, V domains shown) VH: EVQLVQSGAEVKKPGSSVKVSCKASGFNIEDTYIHWVRQAPGQGLEWIGRIDPANGNTKYDPKFQGRATITADESTNTAYMELSSLRSEDTAVYYCGRGLGAWFAYWGQGTLVTVSS VL: DIQMTQSPSSLSASVGDRVTITCKASQDVHTAVAWIQQKPGKSPKLLIYSASNRYTGVPSRFSGSGSGTDFTFTISSLQPEDIATYYCQQHYITPLTFGQGTKLEIKR | 0.000763 s⁻¹
humanized anti-human PD-L1 monoclonal antibody VLS15-VHS14 (antibody, human IgG1, kappa, V domains shown) VH: EVQLVQSGAEVKKPGSSVKVSCKASGFNIEDTYIHWVRQAPGQGLEWIGRIDPANGNTKYDPKFQGRATITADTSTNTAYMELSSLRSEDTAVYYCGRGLGAWFAYWGQGTLVTVSS VL: DIQMTQSPSSLSASVGDRVTITCKASQDVHTAVAWIQQKPGKSPKLLIYSASNRYTGVPSRFSGSGSGTDFTFTISSLQPEDIATYYCQQHYITPLTFGQGTKLEIKR | 0.000452 s⁻¹
